Source: patent publication US20240360474 (Scribe Therapeutics Inc., published 2024)

T1: CasX 2 (reference CasX) (Planctomycetes)
T1 chain: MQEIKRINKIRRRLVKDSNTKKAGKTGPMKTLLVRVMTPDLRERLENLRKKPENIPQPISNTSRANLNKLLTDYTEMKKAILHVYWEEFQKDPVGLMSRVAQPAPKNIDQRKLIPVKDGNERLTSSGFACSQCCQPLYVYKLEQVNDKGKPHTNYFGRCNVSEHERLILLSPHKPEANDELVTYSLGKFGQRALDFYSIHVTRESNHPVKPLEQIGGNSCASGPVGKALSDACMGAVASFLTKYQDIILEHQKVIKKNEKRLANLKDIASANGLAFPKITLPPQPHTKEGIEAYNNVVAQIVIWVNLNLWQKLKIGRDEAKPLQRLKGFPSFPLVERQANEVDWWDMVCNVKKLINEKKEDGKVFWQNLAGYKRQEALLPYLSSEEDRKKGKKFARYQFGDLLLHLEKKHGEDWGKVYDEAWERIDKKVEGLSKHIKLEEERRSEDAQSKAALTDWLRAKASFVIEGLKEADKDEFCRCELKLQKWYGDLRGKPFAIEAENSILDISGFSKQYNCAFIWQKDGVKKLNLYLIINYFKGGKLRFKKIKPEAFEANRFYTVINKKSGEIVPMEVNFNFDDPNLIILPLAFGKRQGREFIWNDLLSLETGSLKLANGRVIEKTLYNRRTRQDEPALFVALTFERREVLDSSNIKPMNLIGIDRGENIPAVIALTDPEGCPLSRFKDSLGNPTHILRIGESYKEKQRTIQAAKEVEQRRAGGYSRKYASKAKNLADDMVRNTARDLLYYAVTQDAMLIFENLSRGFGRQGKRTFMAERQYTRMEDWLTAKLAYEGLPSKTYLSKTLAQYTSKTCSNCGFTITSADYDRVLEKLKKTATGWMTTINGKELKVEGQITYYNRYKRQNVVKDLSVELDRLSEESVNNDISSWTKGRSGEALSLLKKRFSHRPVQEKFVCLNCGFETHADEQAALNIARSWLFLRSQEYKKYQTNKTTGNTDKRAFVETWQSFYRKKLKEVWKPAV

T2: CasX variant 119 (synthetic construct)
T2 chain: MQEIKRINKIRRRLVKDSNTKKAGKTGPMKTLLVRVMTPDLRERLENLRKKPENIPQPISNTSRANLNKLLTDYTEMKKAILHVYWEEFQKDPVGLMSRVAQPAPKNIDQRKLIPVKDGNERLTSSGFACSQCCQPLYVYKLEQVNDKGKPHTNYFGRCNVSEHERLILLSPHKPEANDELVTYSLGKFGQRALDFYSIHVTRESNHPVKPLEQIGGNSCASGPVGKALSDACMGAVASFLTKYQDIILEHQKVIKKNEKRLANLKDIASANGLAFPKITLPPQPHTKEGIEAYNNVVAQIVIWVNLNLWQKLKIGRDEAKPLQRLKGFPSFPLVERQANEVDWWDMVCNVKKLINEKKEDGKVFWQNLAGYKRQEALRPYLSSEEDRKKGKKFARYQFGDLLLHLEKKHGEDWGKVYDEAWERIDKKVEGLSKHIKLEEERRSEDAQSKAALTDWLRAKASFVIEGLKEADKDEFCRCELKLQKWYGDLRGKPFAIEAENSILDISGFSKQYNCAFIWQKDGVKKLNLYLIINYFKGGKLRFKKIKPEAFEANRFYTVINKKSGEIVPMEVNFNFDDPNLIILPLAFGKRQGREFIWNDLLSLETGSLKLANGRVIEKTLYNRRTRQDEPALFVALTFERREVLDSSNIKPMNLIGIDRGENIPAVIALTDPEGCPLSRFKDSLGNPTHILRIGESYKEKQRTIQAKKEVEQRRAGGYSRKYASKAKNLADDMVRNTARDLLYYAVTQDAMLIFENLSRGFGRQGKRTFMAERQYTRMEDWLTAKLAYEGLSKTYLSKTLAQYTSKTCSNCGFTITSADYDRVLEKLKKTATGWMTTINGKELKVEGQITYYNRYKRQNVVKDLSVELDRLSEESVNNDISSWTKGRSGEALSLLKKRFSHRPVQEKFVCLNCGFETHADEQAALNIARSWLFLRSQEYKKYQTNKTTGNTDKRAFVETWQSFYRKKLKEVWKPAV

T3: CasX variant 438 (synthetic construct)
T3 chain: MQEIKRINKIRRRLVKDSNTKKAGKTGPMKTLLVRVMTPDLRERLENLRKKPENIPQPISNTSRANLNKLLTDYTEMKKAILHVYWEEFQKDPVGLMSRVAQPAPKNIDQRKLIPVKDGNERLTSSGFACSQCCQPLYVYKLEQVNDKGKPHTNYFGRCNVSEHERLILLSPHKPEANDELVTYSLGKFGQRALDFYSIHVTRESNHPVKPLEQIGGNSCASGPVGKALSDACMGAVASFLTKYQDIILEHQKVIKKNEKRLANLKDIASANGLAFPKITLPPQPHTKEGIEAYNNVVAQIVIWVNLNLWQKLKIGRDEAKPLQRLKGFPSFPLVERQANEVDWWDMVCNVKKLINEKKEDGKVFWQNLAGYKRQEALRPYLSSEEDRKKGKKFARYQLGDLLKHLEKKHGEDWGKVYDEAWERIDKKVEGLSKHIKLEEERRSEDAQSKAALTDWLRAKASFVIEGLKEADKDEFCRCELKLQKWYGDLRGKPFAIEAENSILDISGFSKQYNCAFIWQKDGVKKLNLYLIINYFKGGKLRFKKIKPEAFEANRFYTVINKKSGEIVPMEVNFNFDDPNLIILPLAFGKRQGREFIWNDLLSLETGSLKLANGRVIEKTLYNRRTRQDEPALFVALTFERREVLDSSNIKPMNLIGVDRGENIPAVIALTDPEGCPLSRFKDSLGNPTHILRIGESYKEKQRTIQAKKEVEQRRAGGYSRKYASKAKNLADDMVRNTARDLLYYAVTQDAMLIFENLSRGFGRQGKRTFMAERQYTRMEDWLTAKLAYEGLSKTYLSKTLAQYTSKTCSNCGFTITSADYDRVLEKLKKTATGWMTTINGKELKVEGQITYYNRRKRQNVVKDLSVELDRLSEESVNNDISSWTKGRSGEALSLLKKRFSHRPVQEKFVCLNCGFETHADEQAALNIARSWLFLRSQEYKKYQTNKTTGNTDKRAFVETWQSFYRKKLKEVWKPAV

T4: CasX variant 491 (synthetic construct)
T4 chain: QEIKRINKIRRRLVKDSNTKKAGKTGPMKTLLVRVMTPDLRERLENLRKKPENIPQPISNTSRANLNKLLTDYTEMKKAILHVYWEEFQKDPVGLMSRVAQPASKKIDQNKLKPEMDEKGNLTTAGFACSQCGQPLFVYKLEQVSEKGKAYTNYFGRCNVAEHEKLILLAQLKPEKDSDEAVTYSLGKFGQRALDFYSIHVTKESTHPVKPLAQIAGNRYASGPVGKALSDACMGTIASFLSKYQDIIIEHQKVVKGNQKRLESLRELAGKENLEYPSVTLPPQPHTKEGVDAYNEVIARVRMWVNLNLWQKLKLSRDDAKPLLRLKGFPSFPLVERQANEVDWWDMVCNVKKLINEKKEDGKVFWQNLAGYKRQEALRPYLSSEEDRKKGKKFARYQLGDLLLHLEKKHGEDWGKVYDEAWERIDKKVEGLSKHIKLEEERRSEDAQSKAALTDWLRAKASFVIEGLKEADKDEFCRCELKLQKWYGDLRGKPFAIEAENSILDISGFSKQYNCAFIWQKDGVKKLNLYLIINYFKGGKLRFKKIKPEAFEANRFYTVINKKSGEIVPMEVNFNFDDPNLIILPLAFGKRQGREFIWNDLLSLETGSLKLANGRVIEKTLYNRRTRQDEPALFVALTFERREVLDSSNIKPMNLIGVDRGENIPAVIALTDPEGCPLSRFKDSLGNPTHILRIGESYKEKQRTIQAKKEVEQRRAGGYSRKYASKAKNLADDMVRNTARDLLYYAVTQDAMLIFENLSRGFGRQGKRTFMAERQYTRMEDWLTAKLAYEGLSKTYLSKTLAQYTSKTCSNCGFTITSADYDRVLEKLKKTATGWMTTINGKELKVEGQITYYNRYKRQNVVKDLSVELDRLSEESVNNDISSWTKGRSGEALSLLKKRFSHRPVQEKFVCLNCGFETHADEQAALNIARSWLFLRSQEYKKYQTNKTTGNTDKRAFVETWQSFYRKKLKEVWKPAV


Columns and labels:
Assay in all cases: cleavage_in_vitro
[1] = molecular target: T1, CasX 2 (reference CasX)
[2] = molecular target: T2, CasX variant 119
[3] = molecular target: T3, CasX variant 438
[4] = molecular target: T4, CasX variant 491

Binder | activity [1] [min⁻¹] | activity [2] [min⁻¹] | activity [3] [min⁻¹] | activity [4] [min⁻¹]
gRNA scaffold 174 + spacer 7.37 ; 7.37 CTC PAM target (ssRNA ; dsDNA) RNA: ACUGGCGCUUUUAUCUGAUUACUUUGAGAGCCAUCACCAGCGACUAUGUCGUAGUGGGUAAAGCUCCCUCUUCGGAGGGAGCAUCAAAGGGGCCGAGAUGUCUCGCUCC DNA 1: TGAAGCTGACAGCACTCGGGCCGAGATGTCTCGCTCCGTGGCCTTAGCTGTGCTCGCGCT DNA 2: AGCGCGAGCACAGCTAAGGCCACGGAGCGAGACATCTCGGCCCGAGTGCTGTCAGCTTCA | 0.00929 | 0.303 | 0.212 | –
gRNA scaffold 174 + spacer 7.37 ; 7.37 TTT PAM target (ssRNA ; dsDNA) RNA: ACUGGCGCUUUUAUCUGAUUACUUUGAGAGCCAUCACCAGCGACUAUGUCGUAGUGGGUAAAGCUCCCUCUUCGGAGGGAGCAUCAAAGGGGCCGAGAUGUCUCGCUCC DNA 1: TGAAGCTGACAGCATTTGGGCCGAGATGTCTCGCTCCGTGGCCTTAGCTGTGCTCGCGCT DNA 2: AGCGCGAGCACAGCTAAGGCCACGGAGCGAGACATCTCGGCCCAAATGCTGTCAGCTTCA | – | – | – | 1.33
gRNA scaffold 174 + spacer 7.37 ; 7.37 ATC PAM target (ssRNA ; dsDNA) RNA: ACUGGCGCUUUUAUCUGAUUACUUUGAGAGCCAUCACCAGCGACUAUGUCGUAGUGGGUAAAGCUCCCUCUUCGGAGGGAGCAUCAAAGGGGCCGAGAUGUCUCGCUCC DNA 1: TGAAGCTGACAGCAATCGGGCCGAGATGTCTCGCTCCGTGGCCTTAGCTGTGCTCGCGCT DNA 2: AGCGCGAGCACAGCTAAGGCCACGGAGCGAGACATCTCGGCCCGATTGCTGTCAGCTTCA | 0.0187 | 0.54 | 0.408 | –
gRNA scaffold 174 + spacer 7.37 ; 7.37 GTC PAM target (ssRNA ; dsDNA) RNA: ACUGGCGCUUUUAUCUGAUUACUUUGAGAGCCAUCACCAGCGACUAUGUCGUAGUGGGUAAAGCUCCCUCUUCGGAGGGAGCAUCAAAGGGGCCGAGAUGUCUCGCUCC DNA 1: TGAAGCTGACAGCAGTCGGGCCGAGATGTCTCGCTCCGTGGCCTTAGCTGTGCTCGCGCT DNA 2: AGCGCGAGCACAGCTAAGGCCACGGAGCGAGACATCTCGGCCCGACTGCTGTCAGCTTCA | 0.00375 | 0.0864 | – | –
